B1: hz140-Hm2/hz182-L (antibody, V domains shown)
VH: QVQLVQSGAEVKKPGASVKVSCKASGYKFTSYVMHWVRQAPGQRLEWMGYINPYNDGIKYNEKFTGRVTITRDTSASTAYMELSSLRSEDTAVYYCAREGDFYANYGRLGFAYWGQGTLVTVSS
VL: DIQMTQSPSSLSASVGDRVTITCRASQDISNYLNWYQQKPGKAPKLLLYYTSRLHSGVPSRFSGSGSGTDYTLTISSLQPEDFATYFCQQGAGRPYTFGGGTKVEIK
B2: hz140-Hm1/hz182-L (antibody, V domains shown)
VH: QVQLVQSGAEVKKPGASVKVSCKASGYTFTNYVMHWVRQAPGQRLEWMGYINPYNDGIKYNEKFTGRVTITRDTSASTAYMELSSLRSEDTAVYYCAREGDFYANYGRLGFAYWGQGTLVTVSS
VL: DIQMTQSPSSLSASVGDRVTITCRASQDISNYLNWYQQKPGKAPKLLLYYTSRLHSGVPSRFSGSGSGTDYTLTISSLQPEDFATYFCQQGAGRPYTFGGGTKVEIK
B3: hz140-Hm3/hz182-L (antibody, V domains shown)
VH: QVQLVQSGAEVKKPGASVKVSCKASGYKFTNYAMHWVRQAPGQRLEWMGYINPYNDGIKYNEKFTGRVTITRDTSASTAYMELSSLRSEDTAVYYCAREGDFYANYGRLGFAYWGQGTLVTVSS
VL: DIQMTQSPSSLSASVGDRVTITCRASQDISNYLNWYQQKPGKAPKLLLYYTSRLHSGVPSRFSGSGSGTDYTLTISSLQPEDFATYFCQQGAGRPYTFGGGTKVEIK
B4: hz140-Hm6/hz182-L (antibody, V domains shown)
VH: QVQLVQSGAEVKKPGASVKVSCKASGYKFTNYVMHWVRQAPGQRLEWMGYINPGNDGIKYNEKFTGRVTITRDTSASTAYMELSSLRSEDTAVYYCAREGDFYANYGRLGFAYWGQGTLVTVSS
VL: DIQMTQSPSSLSASVGDRVTITCRASQDISNYLNWYQQKPGKAPKLLLYYTSRLHSGVPSRFSGSGSGTDYTLTISSLQPEDFATYFCQQGAGRPYTFGGGTKVEIK
B5: hz140-Hm10/hz182-L (antibody, V domains shown)
VH: QVQLVQSGAEVKKPGASVKVSCKASGYKFTNYVMHWVRQAPGQRLEWMGYINPYNEGIKYNEKFTGRVTITRDTSASTAYMELSSLRSEDTAVYYCAREGDFYANYGRLGFAYWGQGTLVTVSS
VL: DIQMTQSPSSLSASVGDRVTITCRASQDISNYLNWYQQKPGKAPKLLLYYTSRLHSGVPSRFSGSGSGTDYTLTISSLQPEDFATYFCQQGAGRPYTFGGGTKVEIK
B6: hz140-Hm12/hz182-L (antibody, V domains shown)
VH: QVQLVQSGAEVKKPGASVKVSCKASGYTFTNYVMSWVRQAPGQRLEWMGYINPYNDAIKYNEKFTGRVTITRDTSASTAYMELSSLRSEDTAVYYCAREGDFYANYGRLGFAYWGQGTLVTVSS
VL: DIQMTQSPSSLSASVGDRVTITCRASQDISNYLNWYQQKPGKAPKLLLYYTSRLHSGVPSRFSGSGSGTDYTLTISSLQPEDFATYFCQQGAGRPYTFGGGTKVEIK
B7: hz140-Hm11/hz182-L (antibody, V domains shown)
VH: QVQLVQSGAEVKKPGASVKVSCKASGYKFTNYVMSWVRQAPGQRLEWMGYINPYNDAIKYNEKFTGRVTITRDTSASTAYMELSSLRSEDTAVYYCAREGDFYANYGRLGFAYWGQGTLVTVSS
VL: DIQMTQSPSSLSASVGDRVTITCRASQDISNYLNWYQQKPGKAPKLLLYYTSRLHSGVPSRFSGSGSGTDYTLTISSLQPEDFATYFCQQGAGRPYTFGGGTKVEIK
B8: hz140-Hm4/hz182-L (antibody, V domains shown)
VH: QVQLVQSGAEVKKPGASVKVSCKASGYKFTNYVMSWVRQAPGQRLEWMGYINPYNDGIKYNEKFTGRVTITRDTSASTAYMELSSLRSEDTAVYYCAREGDFYANYGRLGFAYWGQGTLVTVSS
VL: DIQMTQSPSSLSASVGDRVTITCRASQDISNYLNWYQQKPGKAPKLLLYYTSRLHSGVPSRFSGSGSGTDYTLTISSLQPEDFATYFCQQGAGRPYTFGGGTKVEIK
B9: hz140-Hm9/hz182-L (antibody, V domains shown)
VH: QVQLVQSGAEVKKPGASVKVSCKASGYKFTNYVMHWVRQAPGQRLEWMGYINPYNDAIKYNEKFTGRVTITRDTSASTAYMELSSLRSEDTAVYYCAREGDFYANYGRLGFAYWGQGTLVTVSS
VL: DIQMTQSPSSLSASVGDRVTITCRASQDISNYLNWYQQKPGKAPKLLLYYTSRLHSGVPSRFSGSGSGTDYTLTISSLQPEDFATYFCQQGAGRPYTFGGGTKVEIK
B10: hz140-Hm8/hz182-L (antibody, V domains shown)
VH: QVQLVQSGAEVKKPGASVKVSCKASGYKFTNYVMHWVRQAPGQRLEWMGYINPYNDGIKYNEKFTGRVTITRDTSASTAYMELSSLRSEDTAVYYCAREGDFYANYGRLGFDYWGQGTLVTVSS
VL: DIQMTQSPSSLSASVGDRVTITCRASQDISNYLNWYQQKPGKAPKLLLYYTSRLHSGVPSRFSGSGSGTDYTLTISSLQPEDFATYFCQQGAGRPYTFGGGTKVEIK
B11: hz140-Hm5/hz182-L (antibody, V domains shown)
VH: QVQLVQSGAEVKKPGASVKVSCKASGYKFTNYVMHWVRQAPGQRLEWMGWINPYNDGIKYNEKFTGRVTITRDTSASTAYMELSSLRSEDTAVYYCAREGDFYANYGRLGFAYWGQGTLVTVSS
VL: DIQMTQSPSSLSASVGDRVTITCRASQDISNYLNWYQQKPGKAPKLLLYYTSRLHSGVPSRFSGSGSGTDYTLTISSLQPEDFATYFCQQGAGRPYTFGGGTKVEIK
B12: hz140-Hm7/hz182-L (antibody, V domains shown)
VH: QVQLVQSGAEVKKPGASVKVSCKASGYKFTNYVMHWVRQAPGQRLEWMGYINPYNDGIKYNEKFQGRVTITRDTSASTAYMELSSLRSEDTAVYYCAREGDFYANYGRLGFAYWGQGTLVTVSS
VL: DIQMTQSPSSLSASVGDRVTITCRASQDISNYLNWYQQKPGKAPKLLLYYTSRLHSGVPSRFSGSGSGTDYTLTISSLQPEDFATYFCQQGAGRPYTFGGGTKVEIK
B13: 140Hm2/hz140L (Table 2) (antibody, V domains shown)
VH: QVQLVQSGAEVKKPGASVKVSCKASGYKFTNYAMHWVRQAPGQRLEWMGYINPYNDGIKYNEKFTGRVTITRDTSASTAYMELSSLRSEDTAVYYCAREGDFYANYGRLGFAYWGQGTLVTVSS
VL: DIQMTQSPSSLSASVGDRVTITCRASQDITNYLNWYQQKPGKAPKLLIYYTSRLHSGVPSRFSGSGSGTDYTFTISSLQPEDIATYFCQQGDTFPRTFGGGTKVEIK
notes: also called hz140-Hm/hz140L
B14: 140Hm4/hz140L (Table 2) (antibody, V domains shown)
VH: QVQLVQSGAEVKKPGASVKVSCKASGYKFTNYVMHWVRQAPGQRLEWMGWINPYNDGIKYNEKFTGRVTITRDTSASTAYMELSSLRSEDTAVYYCAREGDFYANYGRLGFAYWGQGTLVTVSS
VL: DIQMTQSPSSLSASVGDRVTITCRASQDITNYLNWYQQKPGKAPKLLIYYTSRLHSGVPSRFSGSGSGTDYTFTISSLQPEDIATYFCQQGDTFPRTFGGGTKVEIK
notes: also called hz140-Hm/hz140L
B15: 140Hm3/hz140L (Table 2) (antibody, V domains shown)
VH: QVQLVQSGAEVKKPGASVKVSCKASGYKFTNYVMSWVRQAPGQRLEWMGYINPYNDGIKYNEKFTGRVTITRDTSASTAYMELSSLRSEDTAVYYCAREGDFYANYGRLGFAYWGQGTLVTVSS
VL: DIQMTQSPSSLSASVGDRVTITCRASQDITNYLNWYQQKPGKAPKLLIYYTSRLHSGVPSRFSGSGSGTDYTFTISSLQPEDIATYFCQQGDTFPRTFGGGTKVEIK
notes: also called hz140-Hm/hz140L
B16: 140Hm7/hz140L (Table 2) (antibody, V domains shown)
VH: QVQLVQSGAEVKKPGASVKVSCKASGYKFTNYVMHWVRQAPGQRLEWMGYINPYNDGIKYNEKFTGRVTITRDTSASTAYMELSSLRSEDTAVYYCAREGDFYANYGRLGFDYWGQGTLVTVSS
VL: DIQMTQSPSSLSASVGDRVTITCRASQDITNYLNWYQQKPGKAPKLLIYYTSRLHSGVPSRFSGSGSGTDYTFTISSLQPEDIATYFCQQGDTFPRTFGGGTKVEIK
notes: also called hz140-Hm/hz140L
B17: 140Hm6/hz140L (Table 2) (antibody, V domains shown)
VH: QVQLVQSGAEVKKPGASVKVSCKASGYKFTNYVMHWVRQAPGQRLEWMGYINPYNDGIKYNEKFQGRVTITRDTSASTAYMELSSLRSEDTAVYYCAREGDFYANYGRLGFAYWGQGTLVTVSS
VL: DIQMTQSPSSLSASVGDRVTITCRASQDITNYLNWYQQKPGKAPKLLIYYTSRLHSGVPSRFSGSGSGTDYTFTISSLQPEDIATYFCQQGDTFPRTFGGGTKVEIK
notes: also called hz140-Hm/hz140L
B18: 140Hm5/hz140L (Table 2) (antibody, V domains shown)
VH: QVQLVQSGAEVKKPGASVKVSCKASGYKFTNYVMHWVRQAPGQRLEWMGYINPGNDGIKYNEKFTGRVTITRDTSASTAYMELSSLRSEDTAVYYCAREGDFYANYGRLGFAYWGQGTLVTVSS
VL: DIQMTQSPSSLSASVGDRVTITCRASQDITNYLNWYQQKPGKAPKLLIYYTSRLHSGVPSRFSGSGSGTDYTFTISSLQPEDIATYFCQQGDTFPRTFGGGTKVEIK
notes: also called hz140-Hm/hz140L

For one test, the target named is T1, recombinant antigen of the extracellular region of CD47 (Sino Biological, Cat: 12283-H08H) (human, UniProt Q08722 19-139).
T1 construct: extracellular domain; also called recombinant CD47 extracellular region; CD47 recombinant protein
T1 sequence (Q08722 19-139 limits assumed): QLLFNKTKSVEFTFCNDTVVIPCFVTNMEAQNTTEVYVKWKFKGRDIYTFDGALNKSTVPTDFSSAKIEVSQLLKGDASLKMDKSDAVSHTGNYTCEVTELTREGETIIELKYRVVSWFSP
The test can be described thus: Fortebio BLI, antibody on AHC sensor, CD47 extracellular region 100 nM.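 Further: antibody held on the sensor through anti-human Fc capture, CD47 antigen in solution, association and dissociation phases each lasting 300 s.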 For orientation: Biolayer interferometry detects binding as a change in optical thickness at a sensor tip.
Protocol: The affinity between the obtained mutant antibody and the CD47 recombinant protein was determined by Fortebio. The antibody was immobilized on the surface of a sensor with the anti-human Fc capture antibody (AHC Sensor), and reacted with the recombinant antigen of the extracellular region of CD47 (with a working concentration of 100 nM) in the liquid phase. The duration for binding and dissociation was both 300 seconds. The kinetic parameters were determined.
B1: the Kd – broadly, a measure of binding affinity in units of concentration – was 1.71 nM; the koff – broadly, the rate constant with which the complex falls apart – turned out to be 0.000541 s⁻¹; the kon (as a rule, the second-order rate constant of association) was 317000 M⁻¹ s⁻¹.

For the molecule B2, the Kd amounted to 1.67 nM, the koff came out at 0.000542 s⁻¹ and the kon came out at 325000 M⁻¹ s⁻¹.

In the case of B3, the Kd is 10.3 nM, the koff turned out to be 0.00308 s⁻¹ and the kon was found to be 299000 M⁻¹ s⁻¹.

On to B4, for which the Kd was 8.55 nM, the koff was found to be 0.00316 s⁻¹ and the kon is 370000 M⁻¹ s⁻¹.

Regarding B5, the Kd is less than 0.001 nM, the koff was less than 1e-07 s⁻¹ and the kon stood at 206000 M⁻¹ s⁻¹.

For the molecule B6, the Kd was 14.7 nM, the koff worked out at 0.00328 s⁻¹ and the kon was determined as 224000 M⁻¹ s⁻¹.

For the molecule B7, the Kd is 6.53 nM, the koff was 0.0017 s⁻¹ and the kon is 260000 M⁻¹ s⁻¹.

Take B8: the Kd was 5.97 nM, the koff is 0.00171 s⁻¹ and the kon worked out at 286000 M⁻¹ s⁻¹.

For B9, the Kd is less than 0.001 nM, the koff was less than 1e-07 s⁻¹ and the kon is 223000 M⁻¹ s⁻¹.

Consider B10, for which the Kd turned out to be 42.5 nM, the koff was 0.00907 s⁻¹ and the kon came out at 213000 M⁻¹ s⁻¹.

For B11, the dissociation constant Kd is 6.82 nM, the koff amounted to 0.00103 s⁻¹ and the kon came out at 151000 M⁻¹ s⁻¹.

Consider B12, for which the Kd worked out at 61.8 nM, the koff came out at 0.00767 s⁻¹ and the kon came to 124000 M⁻¹ s⁻¹.

The target of another test is T1, recombinant antigen of the …. Description: Fortebio BLI, recombinant CD47 extracellular region.
B13: the Kd worked out at 2.67 nM, the koff was found to be 0.00071 s⁻¹ and the kon stood at 266000 M⁻¹ s⁻¹.

For B14, the dissociation constant (Kd) was 6.17 nM, the koff was 0.00216 s⁻¹ and the kon was 350000 M⁻¹ s⁻¹.

Regarding B15, the Kd worked out at 5.12 nM, the koff worked out at 0.00103 s⁻¹ and the kon was determined as 201000 M⁻¹ s⁻¹.

For the molecule B16, the Kd turned out to be 61.4 nM, the koff worked out at 0.0131 s⁻¹ and the kon came to 213000 M⁻¹ s⁻¹.

As to B17, the Kd came out at 22.6 nM, the koff is 0.00707 s⁻¹ and the kon was determined as 313000 M⁻¹ s⁻¹.

Take B18: the Kd amounted to 20.8 nM, the koff was 0.00467 s⁻¹ and the kon stood at 224000 M⁻¹ s⁻¹.

(Values after patent US20230406921A1 (MABWELL SHANGHAI BIOSCIENCE, published 2023).)
